Experimental data from paper doi:10.1101/2023.10.27.564453.

Target: MIK2 ectodomain (MIK2^LRR), residues 45-707, 6 x His-MBP tagged (Arabidopsis thaliana) (UniProt Q8VZG8)
Assay: MST

Chain of UniProt Q8VZG8 (Q8VZG8 45-707): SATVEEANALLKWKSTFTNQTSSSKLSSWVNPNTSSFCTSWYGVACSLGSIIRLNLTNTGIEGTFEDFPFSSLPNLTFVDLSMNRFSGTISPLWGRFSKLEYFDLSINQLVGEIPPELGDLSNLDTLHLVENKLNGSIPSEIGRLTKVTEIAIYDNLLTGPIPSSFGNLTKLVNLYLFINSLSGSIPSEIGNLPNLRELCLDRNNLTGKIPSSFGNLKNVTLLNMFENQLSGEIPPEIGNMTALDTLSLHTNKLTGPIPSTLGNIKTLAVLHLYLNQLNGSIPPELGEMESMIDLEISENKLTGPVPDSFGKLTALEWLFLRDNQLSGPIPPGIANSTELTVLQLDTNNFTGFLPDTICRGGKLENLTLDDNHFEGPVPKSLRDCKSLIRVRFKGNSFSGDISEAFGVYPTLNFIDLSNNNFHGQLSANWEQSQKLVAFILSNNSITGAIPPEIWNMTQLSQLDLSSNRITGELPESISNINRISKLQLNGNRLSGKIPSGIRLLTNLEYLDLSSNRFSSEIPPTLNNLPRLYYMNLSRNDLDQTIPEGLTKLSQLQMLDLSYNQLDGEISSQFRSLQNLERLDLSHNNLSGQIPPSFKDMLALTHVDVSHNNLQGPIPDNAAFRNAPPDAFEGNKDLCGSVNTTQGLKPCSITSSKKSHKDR

Kd [µM]	Ki [µM]	Substance
0.0135	–	5-FAM-SCOOP10 peptide (SCOOP10#2, N-terminally 5-FAM labelled) (from UniProt Q9LU08 30-98)
0.022	–	5-FAM-SCOOP12 peptide (N-terminally 5-FAM labelled) (from UniProt B3H7I1 44-78)
–	0.0401	SCOOP12 peptide (unlabelled) (from UniProt B3H7I1 44-78)
